Test results as given in IntAct's records for PubMed 21145460.

B1: Regulator of nonsense transcripts 1 (Homo sapiens), Q92900-2 (parent)
chain: MSVEAYGPSSQTLTFLDTEEAELLGADTQGSEFEFTDFTLPSQTQTPPGGPGGPGGGGAGGPGGAGAGAAAGQLDAQVGPEGILQNGAVDDSVAKTSQLLAELNFEEDEEDTYYTKDLPIHACSYCGIHDPACVVYCNTSKKWFCNGRGNTSGSHIVNHLVRAKCKEVTLHKDGPLGETVLECYNCGCRNVFLLGFIPAKADSVVVLLCRQPCASQSSLKDINWDSSQWQPLIQDRCFLSWLVKIPSEQEQLRARQITAQQINKLEELWKENPSATLEDLEKPGVDEEPQHVLLRYEDAYQYQNIFGPLVKLEADYDKKLKESQTQDNITVRWDLGLNKKRIAYFTLPKTDSDMRLMQGDEICLRYKGDLAPLWKGIGHVIKVPDNYGDEIAIELRSSVGAPVEVTHNFQVDFVWKSTSFDRMQSALKTFAVDETSVSGYIYHKLLGHEVEDVIIKCQLPKRFTAQGLPDLNHSQVYAVKTVLQRPLSLIQGPPGTGKTVTSATIVYHLARQGNGPVLVCAPSNIAVDQLTEKIHQTGLKVVRLCAKSREAIDSPVSFLALHNQIRNMDSMPELQKLQQLKDETGELSSADEKRYRALKRTAERELLMNADVICCTCVGAGDPRLAKMQFRSILIDESTQATEPECMVPVVLGAKQLILVGDHCQLGPVVMCKKAAKAGLSQSLFERLVVLGIRPIRLQVQYRMHPALSAFPSNIFYEGSLQNGVTAADRVKKGFDFQWPQPDKPMFFYVTQGQEEIASSGTSYLNRTEAANVEKITTKLLKAGAKPDQIGIITPYEGQRSYLVQYMQFSGSLHTKLYQEVEIASVDAFQGREKDFIILSCVRANEHQGIGFLNDPRRLNVALTRARYGVIIVGNPKALSKQPLWNHLLNYYKEQKVLVEGPLNNLRESLMQFSKPRKLVNTINPGARFMTTAMYDAREAIIPGSVYDRSSQGRPSSMYFQTHDQIGMISAGPSHVAAMNIPIPFNLVMPPMPPPGYFGQANGPAAGRGTPKGKTGRGGRQKNRFGLPGPSQTNLPNSQASQDVASQPFSQGALTQGYISMSQPSQMSQPGLSQPELSQDSYLGDEFKSQIDVALSQDSTYQGERAYQHGGVTGLSQY
B2: Regulator of nonsense transcripts 1 (Homo sapiens), Q92900-2 (parent)
chain: B1 chain
partner: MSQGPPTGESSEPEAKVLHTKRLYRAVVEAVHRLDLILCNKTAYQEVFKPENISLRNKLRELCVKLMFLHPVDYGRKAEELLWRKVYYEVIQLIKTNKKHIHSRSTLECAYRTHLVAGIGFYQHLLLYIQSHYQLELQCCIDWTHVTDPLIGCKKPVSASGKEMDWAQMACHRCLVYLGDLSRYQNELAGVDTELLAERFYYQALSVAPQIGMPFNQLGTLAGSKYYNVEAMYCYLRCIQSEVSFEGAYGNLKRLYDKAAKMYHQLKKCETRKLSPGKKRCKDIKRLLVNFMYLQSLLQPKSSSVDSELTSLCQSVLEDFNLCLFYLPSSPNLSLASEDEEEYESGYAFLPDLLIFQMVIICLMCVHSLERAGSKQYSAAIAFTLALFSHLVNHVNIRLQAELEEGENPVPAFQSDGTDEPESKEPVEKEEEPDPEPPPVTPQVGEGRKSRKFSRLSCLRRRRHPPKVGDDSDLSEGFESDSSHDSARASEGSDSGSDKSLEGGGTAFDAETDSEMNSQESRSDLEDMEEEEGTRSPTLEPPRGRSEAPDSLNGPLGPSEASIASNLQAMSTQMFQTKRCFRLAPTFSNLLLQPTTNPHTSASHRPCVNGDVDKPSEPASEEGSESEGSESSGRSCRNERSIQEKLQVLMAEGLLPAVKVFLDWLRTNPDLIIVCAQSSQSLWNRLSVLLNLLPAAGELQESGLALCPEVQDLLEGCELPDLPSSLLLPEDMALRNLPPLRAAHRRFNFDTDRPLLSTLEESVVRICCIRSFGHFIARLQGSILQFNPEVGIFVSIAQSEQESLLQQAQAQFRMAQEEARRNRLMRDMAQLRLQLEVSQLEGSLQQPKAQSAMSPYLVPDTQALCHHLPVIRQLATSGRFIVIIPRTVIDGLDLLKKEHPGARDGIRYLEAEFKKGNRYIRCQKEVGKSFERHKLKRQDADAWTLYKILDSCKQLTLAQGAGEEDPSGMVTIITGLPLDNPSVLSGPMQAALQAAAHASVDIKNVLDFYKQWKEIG

Variants of: B1
Details: with est1a_human SMG6, Q86US8
Chain of est1a_human SMG6, Q86US8 (Q86US8 whole entry): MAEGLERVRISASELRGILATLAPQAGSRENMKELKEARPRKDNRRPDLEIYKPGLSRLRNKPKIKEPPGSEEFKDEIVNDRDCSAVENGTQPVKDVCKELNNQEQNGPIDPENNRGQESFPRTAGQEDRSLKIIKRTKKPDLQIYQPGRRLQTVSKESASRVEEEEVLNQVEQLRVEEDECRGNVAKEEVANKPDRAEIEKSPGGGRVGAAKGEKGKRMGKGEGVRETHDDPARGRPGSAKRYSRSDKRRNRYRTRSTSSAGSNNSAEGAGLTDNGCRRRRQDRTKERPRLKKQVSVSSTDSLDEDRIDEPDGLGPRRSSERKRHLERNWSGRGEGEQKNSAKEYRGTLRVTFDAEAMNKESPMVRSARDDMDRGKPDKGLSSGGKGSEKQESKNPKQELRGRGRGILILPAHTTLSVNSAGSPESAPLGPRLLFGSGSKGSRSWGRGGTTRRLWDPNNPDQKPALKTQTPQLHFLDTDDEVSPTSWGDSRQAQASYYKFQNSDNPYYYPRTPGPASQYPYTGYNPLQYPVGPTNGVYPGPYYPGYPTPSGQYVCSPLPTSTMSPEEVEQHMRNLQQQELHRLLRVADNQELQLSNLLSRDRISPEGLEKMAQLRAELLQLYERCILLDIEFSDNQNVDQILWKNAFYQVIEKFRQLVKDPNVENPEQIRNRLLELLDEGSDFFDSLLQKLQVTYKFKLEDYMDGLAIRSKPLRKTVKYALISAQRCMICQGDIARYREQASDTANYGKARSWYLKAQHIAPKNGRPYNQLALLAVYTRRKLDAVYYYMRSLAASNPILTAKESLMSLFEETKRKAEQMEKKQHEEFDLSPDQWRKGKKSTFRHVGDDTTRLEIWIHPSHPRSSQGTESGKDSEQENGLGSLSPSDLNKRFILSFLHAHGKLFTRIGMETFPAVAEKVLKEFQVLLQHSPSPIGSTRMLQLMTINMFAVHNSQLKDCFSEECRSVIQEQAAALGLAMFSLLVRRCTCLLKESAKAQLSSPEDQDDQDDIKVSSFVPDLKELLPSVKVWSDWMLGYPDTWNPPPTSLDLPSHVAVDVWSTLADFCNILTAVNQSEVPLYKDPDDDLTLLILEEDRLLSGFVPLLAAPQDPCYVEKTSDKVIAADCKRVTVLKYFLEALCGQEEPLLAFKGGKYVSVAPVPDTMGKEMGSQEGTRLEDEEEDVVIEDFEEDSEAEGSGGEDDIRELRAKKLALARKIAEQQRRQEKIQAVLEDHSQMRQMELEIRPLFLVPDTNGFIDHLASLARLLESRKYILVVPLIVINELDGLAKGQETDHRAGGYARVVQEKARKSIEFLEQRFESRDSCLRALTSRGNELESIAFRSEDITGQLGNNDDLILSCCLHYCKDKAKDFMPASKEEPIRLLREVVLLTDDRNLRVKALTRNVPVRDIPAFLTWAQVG

| effect of a mutation on the interaction | Variant |
| --- | --- |
| increasing interaction | K498A |
| increasing interaction | D636A;E637A |

Variants of: B2
Details: with smg5_human SMG5, Q9UPR3

| effect of a mutation on the interaction | Variant |
| --- | --- |
| increasing interaction | K498A |
| increasing interaction | D636A;E637A |
